Experimental data: patent publication US20250313820A1, “PEPTIDES WITH MULTIVALENT EFFECTS” (In2Cure AB, priority 2021, published 2025)

Assays:
whole blood = format: cell-based, human
Method: (§1) Fresh venous blood from healthy donors was collected in lepirudine tubes (50 μg mL-1). Then 50 μL of blood were transferred to round-bottom 96-wells plate containing 150 μL of peptides previously diluted in RPMI-1640—GlutaMAX-I without phenol red (Gibco). 1:4 diluted blood was used as control. 50 μL of blood mixed with 150 μl 5% Tween-20 were used as positive control. After 1 h incubation at 37° C. and 5% CO2, the plate was centrifuged at 800 g, 150 μL of each sample were transferred to a flat-bottom 96-wells plate and the absorbance at 450 nm was measured. The percentage of hemolysis was calculated following the formula reported below: […]
(§2) Data shown are mean values±SEM obtained from at least four independent experiments all made in triplicate. For each experiment blood from a different donor was used.

[1] = system: cytokines released from human blood stimulated with E. coli LPS; test: Whole blood assay, cytokines overall (TNF-α and IL-1β); format: cell-based; settings: 25% blood, 100 ng mL^−1 LPS, peptide added before or together with LPS, 24 h
Method: (§3) Fresh venous blood was collected in the presence of lepirudin (50 μg mL^−1) from healthy donors. […] After 24 h incubation at 37° C. in 5% CO2, the plate was centrifuged for 5 min at 1000 g and then the supernatants were collected and stored at −80° C. before analysis. The experiment was performed at least 4 times by using blood from different donors each time. To evaluate the healing properties of the peptides, the blood was stimulated with 100 ng mL^−1 LPS and after 30 min incubation at 37° C. was treated with increasing doses of four peptides. […] Then the blood was stimulated with 100 ng mL^−1 of LPS.
(§4) Plasma obtained from blood experiment was used to evaluate cytokine release. Human inflammation DuoSet® ELISA Kit (R&D Systems) specific for TNF-α and IL-1β was used according to the manufacturer's instructions. Absorbance was measured at a wavelength of 450 nm. Data shown are mean values±SEM obtained from at least four independent experiments all performed in duplicate.
(§5) For each experiment blood from a different donor was used.
(§6) Plasma obtained from blood experiments was used to evaluate cytokine release. […] Absorbance was measured at a wavelength of 450 nm. […]
as §6

erythrocytes (RBCs) = format: cell-based, human
Method: as §1
To evaluate the hemolytic effect of the peptides on erythrocytes the blood was collected as reported above and centrifuged at 250 g for 10 min. Then plasma was discarded, and red blood cells were washed with 150 mM NaCl in 10 mM Tris pH 7.4 for three times. Next, the pellet was dilute 100 times with saline Tris buffer. 100 μL of this solution were added to round-bottom 96-wells plate containing 100 μL of peptides previously diluted in saline Tris buffer. After 1 h incubation at 37° C. and 5% CO2, the plate was centrifuged and the absorbance at 450 nm was measured, then the percentage of erythrocyte lysis was determined using formula reported above.
as §2

[2] = system: release of TNF-α in LPS stimulated blood; test: Whole blood assay with cytokine ELISA: TNF-α; format: cell-based; settings: 25% human blood, 100 ng mL^−1 E. coli LPS, 24 h; read-out: Anti-inflammatory activity: Peptide concentration that reduces by 50% the release of TNF-α in LPS stimulated blood
Method: as §3, §4, §5, §6, §6

For “cyclo[GKYGE]YTHVFRLKKWIXKVIXQFGE [2sGKY25]”, the “Hemolytic activity, lysed RBCs in whole blood” value (whole blood) was <1%, the “hemolytic activity in whole blood, in words” value (whole blood) was “slightly lower than for sGKY25, but definitely higher than for sHVF18” and the “anti-inflammatory activity in LPS-stimulated blood (TNF-α and IL-1β release), in words” value [1] was “better suppression of LPS-induced TNF-α and IL-1β release than GKY25”. The “Hemolytic activity, lysed RBCs” value (erythrocytes (RBCs)) was 49.1 ± 13.6% and the IC50 [2] was 8 ± 2.3 µM.
